For data set [1], the system named is T1, E2-12-ABE8e (Neisseria meningitidis).
T1 sequence: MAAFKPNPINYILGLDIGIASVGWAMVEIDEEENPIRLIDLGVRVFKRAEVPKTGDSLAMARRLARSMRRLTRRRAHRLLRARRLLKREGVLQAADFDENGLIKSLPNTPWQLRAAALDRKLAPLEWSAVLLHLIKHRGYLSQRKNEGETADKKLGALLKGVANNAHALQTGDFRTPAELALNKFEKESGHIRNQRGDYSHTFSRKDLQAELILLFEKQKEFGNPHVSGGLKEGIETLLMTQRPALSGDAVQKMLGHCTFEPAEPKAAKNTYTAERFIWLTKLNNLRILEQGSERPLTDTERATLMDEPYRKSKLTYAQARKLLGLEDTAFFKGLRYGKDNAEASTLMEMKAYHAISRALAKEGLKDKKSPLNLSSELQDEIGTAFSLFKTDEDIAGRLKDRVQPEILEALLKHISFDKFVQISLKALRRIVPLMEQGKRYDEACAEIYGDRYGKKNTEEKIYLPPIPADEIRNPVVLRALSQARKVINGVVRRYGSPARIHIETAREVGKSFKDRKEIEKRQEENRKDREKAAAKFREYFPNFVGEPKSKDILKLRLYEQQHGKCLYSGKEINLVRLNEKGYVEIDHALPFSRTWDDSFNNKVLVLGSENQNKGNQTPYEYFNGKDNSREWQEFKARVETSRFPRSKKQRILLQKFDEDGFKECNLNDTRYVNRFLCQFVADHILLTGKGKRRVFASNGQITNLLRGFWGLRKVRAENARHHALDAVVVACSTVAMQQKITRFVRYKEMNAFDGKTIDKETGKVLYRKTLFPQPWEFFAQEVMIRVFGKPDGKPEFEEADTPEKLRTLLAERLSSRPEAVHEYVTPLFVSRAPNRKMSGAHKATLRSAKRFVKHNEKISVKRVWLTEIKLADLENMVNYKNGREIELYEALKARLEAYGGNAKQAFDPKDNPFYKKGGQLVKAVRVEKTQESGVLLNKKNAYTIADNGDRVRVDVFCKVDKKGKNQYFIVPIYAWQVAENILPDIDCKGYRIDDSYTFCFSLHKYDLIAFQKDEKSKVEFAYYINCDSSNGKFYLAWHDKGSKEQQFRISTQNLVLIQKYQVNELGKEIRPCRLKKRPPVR
As to the kind of experiment: cell_activity. The following applies: PAM N4YNC average, E. coli ABE-PPA; 33% on N4YND.

Data set [2] concerns T2, N1-21-ABE8e (Neisseria meningitidis).
T2 sequence: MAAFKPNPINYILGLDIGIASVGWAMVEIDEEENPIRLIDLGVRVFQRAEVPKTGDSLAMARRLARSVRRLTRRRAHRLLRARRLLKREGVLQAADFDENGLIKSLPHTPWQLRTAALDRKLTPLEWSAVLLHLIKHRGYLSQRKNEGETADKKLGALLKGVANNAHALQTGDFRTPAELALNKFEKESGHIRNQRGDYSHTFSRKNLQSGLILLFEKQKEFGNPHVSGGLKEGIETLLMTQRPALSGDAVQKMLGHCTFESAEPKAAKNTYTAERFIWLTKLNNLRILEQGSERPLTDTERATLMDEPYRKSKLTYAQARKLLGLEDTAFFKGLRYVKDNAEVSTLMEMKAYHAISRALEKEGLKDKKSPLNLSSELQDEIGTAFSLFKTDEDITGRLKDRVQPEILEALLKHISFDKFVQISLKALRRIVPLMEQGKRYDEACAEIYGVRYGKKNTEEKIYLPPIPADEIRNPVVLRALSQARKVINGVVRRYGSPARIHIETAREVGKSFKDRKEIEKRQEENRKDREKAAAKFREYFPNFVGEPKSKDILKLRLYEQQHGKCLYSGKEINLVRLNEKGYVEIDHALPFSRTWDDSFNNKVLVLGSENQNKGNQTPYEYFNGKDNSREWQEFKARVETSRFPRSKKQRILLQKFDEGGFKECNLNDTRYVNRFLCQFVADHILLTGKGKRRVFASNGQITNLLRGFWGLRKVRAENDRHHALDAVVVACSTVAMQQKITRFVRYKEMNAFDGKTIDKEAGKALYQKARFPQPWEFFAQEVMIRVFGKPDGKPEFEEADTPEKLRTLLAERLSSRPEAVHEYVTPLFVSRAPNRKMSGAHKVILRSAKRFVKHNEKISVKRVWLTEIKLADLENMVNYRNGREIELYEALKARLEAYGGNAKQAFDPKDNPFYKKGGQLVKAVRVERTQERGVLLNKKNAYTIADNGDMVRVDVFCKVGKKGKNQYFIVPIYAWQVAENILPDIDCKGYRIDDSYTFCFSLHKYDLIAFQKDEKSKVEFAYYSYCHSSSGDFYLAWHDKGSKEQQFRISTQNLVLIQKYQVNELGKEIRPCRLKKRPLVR
As to the kind of experiment: cell_activity. Conditions: E. coli ABE-PPA.

The results in this text go back to patent US20250027114.

On to “AUGGCCCAGACUGAGCACGUGAGGUUGUAGCUCCCUUUCUCAUUUCGGAAACGAAAUGAGAACCGUUGCUACAAUAAGGCCGUCUGAAAAGAUGUGCCGCAACGCUCUGCCCCUUAAAGCUUCUGCUUUAAGGGGCAUCGUUUA / ATGGCCCAGACTGAGCACGTGA / TCACGTGCTCAGTCTGGGCCAT [ABE-PPA sgRNA ; ABE-PPA protospacer library target]”, for which the activity (% A-to-G conversion) in data set [1] is 58; in data set [2] (PAM N3CCC (counterselected), virtually eliminated), 4.8; in data set [2] (PAM N3TTG, 64% average on N4GN PAMs), 67.
